A word on the EC50: it is the concentration that produces a half-maximal response.

The target of assay [1] is T1, Human PD-1 expressed on CHO-K1 cells (CHO-K1/hPD-1) (human, UniProt Q15116 25-288).
T1 construct: whole, on cells; also called CHO-K1 cells overexpressing human PD-1
Nature of the assay: FACS, CHO-K1/hPD-1 cells. In general terms: Flow cytometry measures light scatter and fluorescence of single cells or particles in a stream.

Assay [2] addresses T1, Human PD-1 expressed on CHO-K1 cells …. Nature of the assay: FACS, CHO-K1-hPD-1 cells. The procedure: In order to investigate the binding activity of the CD73×PD-1 bispecific antibody to human CD73 and PD-1, the binding assay at the cellular level was performed using a CHO-K1 cell strain overexpressing human CD73 or PD-1 (CHO-K1-hCD73 or CHO-K1-hPD-1). Briefly, the CHO-K1-hCD73 and CHO-K1-hPD-1 cells were digested and resuspended in an F-12K complete medium, and the cell density was adjusted to 1×10⁶ cells/mL. The cells were seeded in a 96-well V-bottom plate (Corning, #3894) at 100 μL/well, followed by the addition at 100 μL/well and centrifugation at 500 g at 4° C. for 5 min, and then the supernatant was discarded. Antibodies were 3-fold diluted to a maximum final concentration of 50 nM, and a total of 8 concentrations were set. 100 μL of the diluted antibodies was added to each well, and the cells were incubated at 4° C. for 1 h away from light. Thereafter, the cells in each well were rinsed twice with 100 μL of pre-cooled PBS, and centrifuged at 500 g at 4° C. for 5 min, and then the supernatant was discarded. Then 100 μL of a fluorescent secondary antibody (goat anti-human IgG (H+L) secondary antibody, Alexa Fluor® 488 conjugate, Invitrogen, Cat #A11013, 1:1000) was added to each well. […] Finally, the cells in each well were resuspended in 200 μL of pre-cooled PBS, and the fluorescence signal values were read using a BD FACS CANTOII.

Assay [3] addresses T2, Human PD-1-His protein (ACROBiosystems, # PD1-H5221) (human, UniProt Q15116 25-167).
T2 construct: Bought reagent, coated on the ELISA plate; also called human PD-1 protein; human PD-1 antigen; not shown: His tag
Nature of the assay: ELISA, plate-coated human PD-1-His. The procedure:
Human PD-1-His protein (ACROBiosystems, # PD1-H5221) was diluted to 2 μg/mL with PBS, added to a 96-well plate (Corning, cat#9018) at 100 μL/well, and incubated at 4° C. overnight. After the liquid was discarded, the plate was washed 3 times with PBST buffer (pH 7.4, containing 0.05% Tween-20), and 250 μL of 2% BSA blocking buffer was added. The plate was incubated at 37° C. for 1 h. The blocking buffer was discarded, and the plate was washed 3 times with PBST buffer (pH 7.4, containing 0.05% Tween-20). The test antigen-binding protein was 5-fold diluted in sequence at an initial concentration of 100 nM for a total of 8-10 concentration gradients, and added at 100 μL/well. The plate was incubated at 37° C. for 1 h. An isotype antibody was taken as a control. After the plate was washed 3 times with PBST buffer (pH 7.4, containing 0.05% Tween-20), a 4000-fold diluted goat anti-human HRP secondary antibody (Invitrogen, #A18805) was added. The plate was incubated away from light at 37° C. for 1 h. After the plate was washed 3 times with PBST buffer (pH 7.4, containing 0.05% Tween-20), TMB (Biopanda, # TMB-S-003) was added at 100 μL/well. The plate was left away from light at room temperature for about 5 min. The reactions were terminated by adding 50 μL of stop buffer (BBI life sciences, #E661006-0200) to each well, and the absorbance values at 450 nm (OD450) were measured using a microplate reader (PerkinElemer, #Enspire). The half maximal effective concentration (EC₅₀) was calculated from the measurement results.
(In an ELISA, binding on a coated surface is turned into a signal by an enzyme label.)

Assay [4] concerns the target T3, Cynomolgus monkey PD-1-His protein (AcroBiosystems, # PD1-05223) (cynomolgus monkey, UniProt B0LAJ3 25-170).
T3 construct: Bought reagent, coated on the ELISA plate; also called cynomolgus monkey PD-1 protein
In words: ELISA, plate-coated cynomolgus monkey PD-1-His. The procedure:
Cynomolgus monkey PD-1-His protein (AcroBiosystems, # PD1-05223) was diluted to 2 μg/mL with PBS, added to a 96-well plate (Corning, #9018) at 100 μL/well, and incubated at 4° C. overnight. After the liquid was discarded, the plate was washed 3 times with PBST, blocked by adding 250 μL of 2% BSA, and incubated at room temperature for 1 h. The blocking buffer was discarded, and the plate was washed 3 times with PBST buffer (pH 7.4, containing 0.05% Tween-20). The test antigen-binding protein was diluted to 5 μg/mL, and added at 100 μL/well. The plate was incubated at 37° C. for 1 h. After the plate was washed 3 times with PBST buffer (pH 7.4, containing 0.05% Tween-20), a 4000-fold diluted goat anti-human HRP secondary antibody (Invitrogen, #A18805) was added. The plate was incubated at 37° C. for 1 h. After the plate was washed, TMB (Biopanda, # TMB-S-003) was added at 100 μL/well. The plate was left away from light at room temperature for 5 min. The reactions were terminated by adding 50 μL of stop buffer (BBI life sciences, #E661006-0200) to each well, and the absorbance values at 450 nm (OD450) were measured using a microplate reader (PerkinElemer, #Enspire).

T1 sequence (Q15116 25-288): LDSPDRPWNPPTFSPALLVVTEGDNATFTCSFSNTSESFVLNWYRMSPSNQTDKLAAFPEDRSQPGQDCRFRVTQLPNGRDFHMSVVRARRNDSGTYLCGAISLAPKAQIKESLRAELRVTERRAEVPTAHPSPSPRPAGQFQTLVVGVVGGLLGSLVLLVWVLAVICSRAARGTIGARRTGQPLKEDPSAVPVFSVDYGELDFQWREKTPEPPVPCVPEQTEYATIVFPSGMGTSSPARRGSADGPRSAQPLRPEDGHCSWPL
T2 sequence (Q15116 25-167 limits assumed): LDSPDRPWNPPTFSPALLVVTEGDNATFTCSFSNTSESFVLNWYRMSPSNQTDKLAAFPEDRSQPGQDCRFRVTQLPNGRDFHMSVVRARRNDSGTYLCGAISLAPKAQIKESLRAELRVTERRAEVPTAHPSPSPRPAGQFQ
T3 sequence (B0LAJ3 entry or part of it limits assumed): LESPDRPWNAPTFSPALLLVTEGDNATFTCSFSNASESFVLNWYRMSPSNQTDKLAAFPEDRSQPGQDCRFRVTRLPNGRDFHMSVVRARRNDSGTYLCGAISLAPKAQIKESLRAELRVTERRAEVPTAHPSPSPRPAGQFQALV

B1: PR002481 (antibody, human IgG1, V domains shown)
VH: EVQLVETGGGLIQPGGSLRLSCAASGFNVSSHYMSWVRQAPGKGREWVSIIDGGGSTYYADSVKGRFTISRDNSKNRLYLQMNSLRAEDTAMYYCARATAVAEKNGYNYPFNYWGQGTLVTVSS
notes: Heavy-chain-only antibody (HCAb), human IgG1 Fc; two heavy chains, no light chain; also called R4004P556D1; anti-PD1 R4004P556D1 HCAb hG1
With B1, the EC50 in assay [1] stood at 8.18 nM; in assay [2] it was 1.24 nM; in assay [3], 0.043 nM; in assay [4], 0.031 nM. Further, in assay [1], the “Maximum (MFI)” value was found to be 2.75e+06. Further, the “OD Maximum” value is 2.85 in assay [3] and 3.06 in assay [4].

(Values after patent US20240034792A1 (HARBOUR BIOMED SHANGHAI, published 2024).)
